Target: T1, NR-LU-10 antigen (Homo sapiens, UniProt P16422)
T1 construct: Positive NR-LU-10 tissue reactivity indicates NR-LU-10 antigen expression by such tissues; from tissue; host or cells: carcinoma and normal tissue specimens
T1 sequence (P16422 24-314): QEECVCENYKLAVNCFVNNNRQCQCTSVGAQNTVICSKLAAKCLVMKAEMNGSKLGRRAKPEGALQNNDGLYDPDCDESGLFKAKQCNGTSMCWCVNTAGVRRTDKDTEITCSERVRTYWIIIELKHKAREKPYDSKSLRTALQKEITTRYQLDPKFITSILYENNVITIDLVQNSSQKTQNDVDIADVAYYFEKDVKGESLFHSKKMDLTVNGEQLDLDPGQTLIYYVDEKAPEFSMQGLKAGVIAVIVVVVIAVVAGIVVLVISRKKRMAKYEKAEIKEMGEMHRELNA
Test: NR-LU-10 reactivity with normal tissues (Table B)
Format: binding
From the text: Radioimmunoassays, immunoprecipitation and Fluorescence-Activated Cell Sorter (FACS) analysis were used to obtain reactivity profiles of NR-LU-10. The NR-LU-10 target antigen was present on either fixed cultured cells or in detergent extracts of various types of cancer cells. For example, the NR-LU-10 antigen is found in small cell lung, non-small cell lung, colon, breast, renal, ovarian, pancreatic, and other carcinoma tissues. Tumor reactivity of the NR-LU-10 antibody is set forth in Table A, while NR-LU-10 reactivity with normal tissues is set forth in Table B. The values in Table B are obtained as described below. Positive NR-LU-10 tissue reactivity indicates NR-LU-10 antigen expression by such tissues.
The tissue specimens were scored in accordance with three reactivity parameters: (1) the intensity of the reaction; (2) the uniformity of the reaction within the cell type; and (3) the percentage of cells reactive with the antibody. These three values are combined into a single weighted comparative value between 0 and 500, with 500 being the most intense reactivity. This comparative value facilitates comparison of different tissues. Table B includes a summary reactivity value, the number of tissue samples examined and the number of samples that reacted positively with NR-LU-10.

[1] = Adenoid: Lymphoid Follicle-Central
[2] = Adenoid: Lymphoid Follicle-Peripheral
[3] = Adrenal: Zona Fasciculata Cortex
[4] = Adrenal: Zona Glomerulosa Cortex
[5] = Adrenal: Zona Reticularis Cortex
[6] = Brain-Cerebellum: Axons, Myelinated
[7] = Brain-Cerebellum: Purkenje's Cells
[8] = Brain-Cerebrum: Axons, Myelinated
[9] = Brain-Midbrain: Axons, Myelinated
[10] = Gall Bladder: Mucosal Epithelium
[11] = Kidney: Distal Convoluted Tubules
[12] = Kidney: Proximal Convoluted Tubules
[13] = Liver: Central Lobular Hepatocyte
[14] = Lymph Node: Lymphoid Follicle-Central
[15] = Lymph Node: Lymphoid Follicle-Peripheral
[16] = Mammary Gland: Alveolar Epithelium

B1: NR-LU-10: 150 kilodalton IgG2b monoclonal antibody recognizing an approximately 40 kilodalton glycoprotein antigen expressed on most carcinomas (antibody, V domains shown)
VH: EVQLQQSGAELVKPGASVRLSCTASGFNIKDTYMHWVIERPEQGLEWIGRIDPANGNTKCDPKFQGKATITADTSSNTAYLQLSSLTSEDTAVYYCSREVLTGTWSLDYWGQGTSVTVSS
VL: DIQMIQSPSSMFASLGDRVSLSCRASQGIRGNLDWYQQKPGGTIKLLIYSTSNLNSGVPSRFSGSGSGSDYSLTISSLDSEDFADYYCLQRNAYPYTFGGGTKLEIK
With B1 the “# Pos/Exam” value (Adenoid) was 3/3, the “Summary Reactivity” value (Adenoid) was 433 and the “# Pos/Exam” value (Adenoid: Epithelium) was 0/3. For the same molecule, the “Summary Reactivity” value (Adenoid: Epithelium) was 0, the “# Pos/Exam” value [1] was 0/3 and the “Summary Reactivity” value [1] was 0. For the same molecule, the “# Pos/Exam” value [2] was 2/2, the “Summary Reactivity” value [2] was 400 and the “# Pos/Exam” value (Adipose Tissue: Fat Cells) was 0/3. The “Summary Reactivity” value (Adipose Tissue: Fat Cells) was 0, the “# Pos/Exam” value (Adrenal: Medulla) was 0/3 and the “Summary Reactivity” value (Adrenal: Medulla) was 0. For the same molecule, the “# Pos/Exam” value [3] was 0/3, the “Summary Reactivity” value [3] was 0 and the “# Pos/Exam” value [4] was 0/3. The “Summary Reactivity” value [4] was 0, the “# Pos/Exam” value [5] was 0/3 and the “Summary Reactivity” value [5] was 0. The “# Pos/Exam” value (Aorta: Elastic Interna) was 0/3, the “Summary Reactivity” value (Aorta: Elastic Interna) was 0 and the “# Pos/Exam” value (Aorta: Endothelium) was 0/3. For the same molecule, the “Summary Reactivity” value (Aorta: Endothelium) was 0, the “# Pos/Exam” value (Aorta: Tunica Adventitia) was 0/3 and the “Summary Reactivity” value (Aorta: Tunica Adventitia) was 0. For the same molecule, the “# Pos/Exam” value (Aorta: Tunica Media) was 0/3, the “Summary Reactivity” value (Aorta: Tunica Media) was 0 and the “# Pos/Exam” value [6] was 0/3. For the same molecule, the “Summary Reactivity” value [6] was 0, the “# Pos/Exam” value (Brain-Cerebellum: Microglia) was 0/3 and the “Summary Reactivity” value (Brain-Cerebellum: Microglia) was 0. For the same molecule, the “# Pos/Exam” value (Brain-Cerebellum: Neurons) was 0/3, the “Summary Reactivity” value (Brain-Cerebellum: Neurons) was 0 and the “# Pos/Exam” value [7] was 0/3. The “Summary Reactivity” value [7] was 0, the “# Pos/Exam” value [8] was 0/3 and the “Summary Reactivity” value [8] was 0. For the same molecule, the “# Pos/Exam” value (Brain-Cerebrum: Microglia) was 0/3, the “Summary Reactivity” value (Brain-Cerebrum: Microglia) was 0 and the “# Pos/Exam” value (Brain-Cerebrum: Neurons) was 0/3. The “Summary Reactivity” value (Brain-Cerebrum: Neurons) was 0, the “# Pos/Exam” value [9] was 0/3 and the “Summary Reactivity” value [9] was 0. For the same molecule, the “# Pos/Exam” value (Brain-Midbrain: Microglia) was 0/3, the “Summary Reactivity” value (Brain-Midbrain: Microglia) was 0 and the “# Pos/Exam” value (Brain-Midbrain: Neurons) was 0/3. For the same molecule, the “Summary Reactivity” value (Brain-Midbrain: Neurons) was 0, the “# Pos/Exam” value (Colon: Mucosal Epithelium) was 3/3 and the “Summary Reactivity” value (Colon: Mucosal Epithelium) was 500. The “# Pos/Exam” value (Colon: Muscularis Externa) was 0/3, the “Summary Reactivity” value (Colon: Muscularis Externa) was 0 and the “# Pos/Exam” value (Colon: Muscularis Mucosa) was 0/3. The “Summary Reactivity” value (Colon: Muscularis Mucosa) was 0, the “# Pos/Exam” value (Colon: Nerve Ganglia) was 0/3 and the “Summary Reactivity” value (Colon: Nerve Ganglia) was 0. The “# Pos/Exam” value (Colon: Serosa) was 0/1, the “Summary Reactivity” value (Colon: Serosa) was 0 and the “# Pos/Exam” value (Duodenum: Mucosal Epithelium) was 3/3. The “Summary Reactivity” value (Duodenum: Mucosal Epithelium) was 500, the “# Pos/Exam” value (Duodenum: Muscularis Mucosa) was 0/3 and the “Summary Reactivity” value (Duodenum: Muscularis Mucosa) was 0. The “# Pos/Exam” value (Epididymis: Epithelium) was 3/3, the “Summary Reactivity” value (Epididymis: Epithelium) was 419 and the “# Pos/Exam” value (Epididymis: Smooth Muscle) was 0/3. For the same molecule, the “Summary Reactivity” value (Epididymis: Smooth Muscle) was 0, the “# Pos/Exam” value (Epididymis: Spermatozoa) was 0/1 and the “Summary Reactivity” value (Epididymis: Spermatozoa) was 0. For the same molecule, the “# Pos/Exam” value (Esophagus: Epithelium) was 3/3, the “Summary Reactivity” value (Esophagus: Epithelium) was 86 and the “# Pos/Exam” value (Esophagus: Mucosal Gland) was 2/2. The “Summary Reactivity” value (Esophagus: Mucosal Gland) was 450, the “# Pos/Exam” value (Esophagus: Smooth Muscle) was 0/3 and the “Summary Reactivity” value (Esophagus: Smooth Muscle) was 0. For the same molecule, the “# Pos/Exam” value [10] was 0/3, the “Summary Reactivity” value [10] was 467 and the “# Pos/Exam” value (Gall Bladder: Smooth Muscle) was 0/3. For the same molecule, the “Summary Reactivity” value (Gall Bladder: Smooth Muscle) was 0, the “# Pos/Exam” value (Heart: Myocardium) was 0/3 and the “Summary Reactivity” value (Heart: Myocardium) was 0. For the same molecule, the “# Pos/Exam” value (Heart: Serosa) was 0/1, the “Summary Reactivity” value (Heart: Serosa) was 0 and the “# Pos/Exam” value (Ileum: Lymph Node) was 0/2. The “Summary Reactivity” value (Ileum: Lymph Node) was 0, the “# Pos/Exam” value (Ileum: Mucosal Epithelium) was 0/2 and the “Summary Reactivity” value (Ileum: Mucosal Epithelium) was 0. For the same molecule, the “# Pos/Exam” value (Ileum: Muscularis Externa) was 0/1, the “Summary Reactivity” value (Ileum: Muscularis Externa) was 0 and the “# Pos/Exam” value (Ileum: Muscularis Mucosa) was 0/2. For the same molecule, the “Summary Reactivity” value (Ileum: Muscularis Mucosa) was 0, the “# Pos/Exam” value (Ileum: Nerve Ganglia) was 0/1 and the “Summary Reactivity” value (Ileum: Nerve Ganglia) was 0. The “# Pos/Exam” value (Ileum: Serosa) was 0/1, the “Summary Reactivity” value (Ileum: Serosa) was 0 and the “# Pos/Exam” value (Jejunum: Lymph Node) was 0/1. The “Summary Reactivity” value (Jejunum: Lymph Node) was 0, the “# Pos/Exam” value (Jejunum: Mucosal Epithelium) was 2/2 and the “Summary Reactivity” value (Jejunum: Mucosal Epithelium) was 400. The “# Pos/Exam” value (Jejunum: Muscularis Externa) was 0/2, the “Summary Reactivity” value (Jejunum: Muscularis Externa) was 0 and the “# Pos/Exam” value (Jejunum: Muscularis Mucosa) was 0/2. For the same molecule, the “Summary Reactivity” value (Jejunum: Muscularis Mucosa) was 0, the “# Pos/Exam” value (Jejunum: Nerve Ganglia) was 0/2 and the “Summary Reactivity” value (Jejunum: Nerve Ganglia) was 0. The “# Pos/Exam” value (Jejunum: Serosa) was 0/1, the “Summary Reactivity” value (Jejunum: Serosa) was 0 and the “# Pos/Exam” value (Kidney: Collecting Tubules) was 2/3. For the same molecule, the “Summary Reactivity” value (Kidney: Collecting Tubules) was 160, the “# Pos/Exam” value [11] was 3/3 and the “Summary Reactivity” value [11] was 500. For the same molecule, the “# Pos/Exam” value (Kidney: Glomerular Eipithelium) was 0/3, the “Summary Reactivity” value (Kidney: Glomerular Eipithelium) was 0 and the “# Pos/Exam” value (Kidney: Mesangial) was 0/3. For the same molecule, the “Summary Reactivity” value (Kidney: Mesangial) was 0, the “# Pos/Exam” value [12] was 3/3 and the “Summary Reactivity” value [12] was 500. The “# Pos/Exam” value (Liver: Bile Duct) was 3/3, the “Summary Reactivity” value (Liver: Bile Duct) was 500 and the “# Pos/Exam” value [13] was 1/3. The “Summary Reactivity” value [13] was 4, the “# Pos/Exam” value (Liver: Kupffer Cells) was 0/3 and the “Summary Reactivity” value (Liver: Kupffer Cells) was 0. For the same molecule, the “# Pos/Exam” value (Liver: Periportal Hepatocyte) was 1/3, the “Summary Reactivity” value (Liver: Periportal Hepatocyte) was 40 and the “# Pos/Exam” value (Lung: Alveolar Macrophage) was 0/3. The “Summary Reactivity” value (Lung: Alveolar Macrophage) was 0, the “# Pos/Exam” value (Lung: Bronchial Epithelium) was 0/2 and the “Summary Reactivity” value (Lung: Bronchial Epithelium) was 0. The “# Pos/Exam” value (Lung: Bronchial Smooth Muscle) was 0/2, the “Summary Reactivity” value (Lung: Bronchial Smooth Muscle) was 0 and the “# Pos/Exam” value (Lung: Pneumocyte Type I) was 3/3. The “Summary Reactivity” value (Lung: Pneumocyte Type I) was 354, the “# Pos/Exam” value (Lung: Pneumocyte Type II) was 3/3 and the “Summary Reactivity” value (Lung: Pneumocyte Type II) was 387. The “# Pos/Exam” value [14] was 0/3, the “Summary Reactivity” value [14] was 0 and the “# Pos/Exam” value [15] was 0/3. For the same molecule, the “Summary Reactivity” value [15] was 0, the “# Pos/Exam” value [16] was 3/3 and the “Summary Reactivity” value [16] was 500. For the same molecule, the “# Pos/Exam” value (Mammary Gland: Duct Epithelium) was 3/3, the “Summary Reactivity” value (Mammary Gland: Duct Epithelium) was 500 and the “# Pos/Exam” value (Mammary Gland: Myoepithelium) was 0/3. For the same molecule, the “Summary Reactivity” value (Mammary Gland: Myoepithelium) was 0, the “# Pos/Exam” value (Muscle Skeletal: Muscle Fiber) was 0/3 and the “Summary Reactivity” value (Muscle Skeletal: Muscle Fiber) was 0. For the same molecule, the “# Pos/Exam” value (Nerve: Axon, Myelinated) was 0/2, the “Summary Reactivity” value (Nerve: Axon, Myelinated) was 0 and the “# Pos/Exam” value (Nerve: Endoneurium) was 0/2.
